From paper PMC5570060 (Nucleic Acids Research, 2017)
Positions count from the first letter of the chain named. In names and notes the source's numbering stands. Like-named read-outs stand apart in the source and are kept apart here.

B1: FBP21^276–376 (domain or fragment, UniProt O75554 276-376, looked up)
chain: NSLGSNEEKSKTLKKSNPYGEWQEIKQEVESHEEVDLELPSTENEYVSTSEADGGGEPKVVFKEKTVTSLGVMADGVAPVFKKRRTENGKSRNLRQRGDDQ
B2: FBP21^326–376 (domain or fragment, UniProt O75554 326-376, looked up)
chain: EADGGGEPKVVFKEKTVTSLGVMADGVAPVFKKRRTENGKSRNLRQRGDDQ
B3: FBP21^200–376 (domain or fragment, UniProt O75554 200-376, looked up)
chain: HTSDLPSSKVNENSLGTLDESKSSDSHSDSDGEQEAEEGGVSTETEKPKIKFKEKNKNSDGGSDPETQKEKSIQKQNSLGSNEEKSKTLKKSNPYGEWQEIKQEVESHEEVDLELPSTENEYVSTSEADGGGEPKVVFKEKTVTSLGVMADGVAPVFKKRRTENGKSRNLRQRGDDQ
B4: FBP21^200–376 K358A/R360A (domain or fragment, UniProt O75554 200-376, looked up)
chain: B3 chain with K159A, R161A
B5: FBP21^200–376 K357E/R359E (domain or fragment, UniProt O75554 200-376, looked up)
chain: B3 chain with K158E, R160E
B6: FBP21^116–376 (domain or fragment, UniProt O75554 116-376, looked up)
chain: KKKRKKDPSKGRWVEGITSEGYHYYYDLISGASQWEKPEGFQGDLKKTAVKTVWVEGLSEDGFTYYYNTETGESRWEKPDDFIPHTSDLPSSKVNENSLGTLDESKSSDSHSDSDGEQEAEEGGVSTETEKPKIKFKEKNKNSDGGSDPETQKEKSIQKQNSLGSNEEKSKTLKKSNPYGEWQEIKQEVESHEEVDLELPSTENEYVSTSEADGGGEPKVVFKEKTVTSLGVMADGVAPVFKKRRTENGKSRNLRQRGDDQ
B7: FBP21^116–376 pre-incubated with SmB peptide (complex)
chain: B6 chain
peptide: GTPMGMPPPGMRPPPPGMRGLL

What was measured:
Test in all cases: ITC
Brr2^C-Sec63 [1] = target: T1, Brr2^C-Sec63 (human, UniProt O75643 1840-2136)
T1 sequence (looked up): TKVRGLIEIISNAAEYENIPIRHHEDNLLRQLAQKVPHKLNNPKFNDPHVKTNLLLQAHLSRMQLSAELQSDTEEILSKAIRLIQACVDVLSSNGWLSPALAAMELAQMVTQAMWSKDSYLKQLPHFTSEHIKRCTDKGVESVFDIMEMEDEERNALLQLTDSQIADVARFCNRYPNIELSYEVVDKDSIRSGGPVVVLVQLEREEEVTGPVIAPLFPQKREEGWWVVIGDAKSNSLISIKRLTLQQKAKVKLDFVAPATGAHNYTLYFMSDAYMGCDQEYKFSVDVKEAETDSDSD

Brr2^C-Sec63 [2] = target: T1, Brr2^C-Sec63; remark: listed apart in the source
FBP21^116–376 = target: B6
[3] = target: T2, Brr2^C-Sec63 pre-incubated with FBP21^116–376 (human | , UniProt O75643 1840-2136; O75554 116-376)
T2 sequence (looked up) 1: T1 sequence (looked up)
T2 sequence (looked up) 2: B6 chain

Brr2^C-Sec63 [4] = target: T1, Brr2^C-Sec63; remark: listed apart in the source

Binder | Kd (Brr2^C-Sec63 [2]) [µM] | further results
GVAPVFKKRRTENGKSRNLR [peptide 58] |  | Kd (Brr2^C-Sec63 [1]): 1.34 ± 0.19 µM
B1 | 0.298 | stoichiometry N (Brr2^C-Sec63 [2]): 1
B2 | 0.11 | 
GVMADGVAPVFKKRRTENGK [peptide 57] | 27.5 | stoichiometry N (Brr2^C-Sec63 [2]): 1
GTPMGMPPPGMRPPPPGMRGLL [SmB-derived peptide] |  | Kd (FBP21^116–376): 16.8 ± 3 µM; Kd [3]: 14 ± 0.8 µM
KRFKR [positively charged control peptide KRFKR] | 27.3 ± 3.01 | 
B3 | 0.125 | stoichiometry N (Brr2^C-Sec63 [2]): 1
B4 | 2.04 ± 0.37 | 
B5 | 27.8 ± 0.9 | 
B6 | 0.275 ± 0.106 | 
B7 |  | Kd (Brr2^C-Sec63 [4]): 0.194 ± 0.014 µM
FKKRR [core binding motif of peptide 57, ^356FKKRR^360] | 20 ± 1.1 | 
GKKRR [positively charged control peptide GKKRR] | 37 ± 5.99 | 
